Three substances from US20190300616A1 can be followed below.

One may read the Kd as the free concentration of one partner at which half of the binding sites on the other are occupied at equilibrium, for simple one-to-one binding. By koff is commonly meant a measure of how fast the partners let go of each other. As usually defined, the kon is the rate constant with which the complex forms. For orientation: EC50 (read off the curve) means the concentration giving half of the maximal effect.

Assay [1] has as its target recombinant human IL13Rα2hFc chimera (human) (UniProt Q14627). Description: SPR, Biacore 3000; mAb immobilized, rhIL13Rα2 injected; 1:1 model.
Assay [2] has the same target. Description: plate-bound ELISA on rhIL13Rα2hFc. (In general: An ELISA detects its analyte on a solid surface through an enzyme-linked reagent.)
Assay [3] has as its target human wild-type IL13Rα2 expressed on the cell surface (human) (UniProt Q14627). In words: flow cytometry (APC-A), N10 glioma cells. A general note: In flow cytometry, cells or beads pass a laser one at a time.
Assay [4] shares this target. Description: flow cytometry (APC-A), N10 glioma cells pre-incubated with 10x excess rhIL13, then mIgG.
For assay [5], the target named is Pngase F-treated rhIL13Rα2hFc (human) (UniProt Q14627). In words: plate-bound ELISA, Pngase F-treated rhIL13Rα2hFc.
Chain of Pngase F-treated rhIL13Rα2hFc (human) (Q14627 27-343 limits assumed): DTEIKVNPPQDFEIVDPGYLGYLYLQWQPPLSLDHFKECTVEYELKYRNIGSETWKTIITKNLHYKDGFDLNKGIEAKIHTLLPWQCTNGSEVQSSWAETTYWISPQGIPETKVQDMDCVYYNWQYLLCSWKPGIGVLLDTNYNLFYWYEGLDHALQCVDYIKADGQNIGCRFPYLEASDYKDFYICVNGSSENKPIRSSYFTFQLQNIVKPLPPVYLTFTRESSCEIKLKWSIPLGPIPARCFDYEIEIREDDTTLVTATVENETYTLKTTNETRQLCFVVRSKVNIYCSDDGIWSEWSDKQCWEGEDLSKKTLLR

Chain of recombinant human IL13Rα2hFc chimera (human) (Q14627 27-343 limits assumed, stated change not applied): as the sequence (Q14627 27-343 limits assumed) above
Chain of human wild-type IL13Rα2 expressed on the cell surface (human) (Q14627 27-380): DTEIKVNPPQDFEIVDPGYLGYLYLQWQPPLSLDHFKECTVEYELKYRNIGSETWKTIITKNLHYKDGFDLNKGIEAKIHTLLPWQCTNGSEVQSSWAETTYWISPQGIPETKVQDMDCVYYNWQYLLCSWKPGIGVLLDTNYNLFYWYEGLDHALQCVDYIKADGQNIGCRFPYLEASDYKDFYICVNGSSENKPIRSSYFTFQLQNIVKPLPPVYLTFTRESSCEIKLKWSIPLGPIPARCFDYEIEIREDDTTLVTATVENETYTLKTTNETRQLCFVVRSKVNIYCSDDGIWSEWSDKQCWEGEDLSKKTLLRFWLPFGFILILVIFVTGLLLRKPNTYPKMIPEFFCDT

For “monoclonal antibody to IL13Rα2 (clone B-D13)”, in assay [1], the Kd worked out at 46.1 nM, the koff was determined as 0.00499 s⁻¹ and the kon came to 108000 M⁻¹ s⁻¹. Also, the EC50 (read off the curve) in assay [2] worked out at 0.2 µg/mL.
Take mIgG (antibody): the % positive cells was 1.9% in assay [3] and 0.9% in assay [4].
Regarding mAb to IL13Rα2 (clone 83807) (antibody), in assay [1], the Kd stood at 104 nM, the off-rate (koff) came out at 0.00231 s⁻¹ and the on-rate constant (kon) came to 22300 M⁻¹ s⁻¹. Further, the percent decrease of binding against untreated protein in assay [5] was determined as 80%.
